# IntAct's records for PubMed 25502805
# B1: Actin nucleation-promoting factor WAS (Homo sapiens), P42768 (parent)
# chain: MSGGPMGGRPGGRGAPAVQQNIPSTLLQDHENQRLFEMLGRKCLTLATAVVQLYLALPPGAEHWTKEHCGAVCFVKDNPQKSYFIRLYGLQAGRLLWEQELYSQLVYSTPTPFFHTFAGDDCQAGLNFADEDEAQAFRALVQEKIQKRNQRQSGDRRQLPPPPTPANEERRGGLPPLPLHPGGDQGGPPVGPLSLGLATVDIQNPDITSSRYRGLPAPGPSPADKKRSGKKKISKADIGAPSGFKHVSHVGWDPQNGFDVNNLDPDLRSLFSRAGISEAQLTDAETSKLIYDFIEDQGGLEAVRQEMRRQEPLPPPPPPSRGGNQLPRPPIVGGNKGRSGPLPPVPLGIAPPPPTPRGPPPPGRGGPPPPPPPATGRSGPLPPPPPGAGGPPMPPPPPPPPPPPSSGNGPAPPPLPPALVPAGGLAPGGGRGALLDQIRQGIQLNKTPGAPESSALQPPPQSSEGLVGALMHVMQKRSRAIHSSDEGEDQAGDEDEDDEWDD
# B2: Interleukin-1 receptor-associated kinase 4 (Homo sapiens), Q9NWZ3 (parent)
# chain: MNKPITPSTYVRCLNVGLIRKLSDFIDPQEGWKKLAVAIKKPSGDDRYNQFHIRRFEALLQTGKSPTSELLFDWGTTNCTVGDLVDLLIQNEFFAPASLLLPDAVPKTANTLPSKEAITVQQKQMPFCDKDRTLMTPVQNLEQSYMPPDSSSPENKSLEVSDTRFHSFSFYELKNVTNNFDERPISVGGNKMGEGGFGVVYKGYVNNTTVAVKKLAAMVDITTEELKQQFDQEIKVMAKCQHENLVELLGFSSDGDDLCLVYVYMPNGSLLDRLSCLDGTPPLSWHMRCKIAQGAANGINFLHENHHIHRDIKSANILLDEAFTAKISDFGLARASEKFAQTVMTSRIVGTTAYMAPEALRGEITPKSDIYSFGVVLLEIITGLPAVDEHREPQLLLDIKEEIEDEEKTIEDYIDKKMNDADSTSVEAMYSVASQCLHEKKNKRPDIKKVQQLLQEMTAS
# Variants of: B1
# Conditions: with cdc42_human CDC42, P60953
# cdc42_human CDC42, P60953, sequence (P60953 whole entry, looked up): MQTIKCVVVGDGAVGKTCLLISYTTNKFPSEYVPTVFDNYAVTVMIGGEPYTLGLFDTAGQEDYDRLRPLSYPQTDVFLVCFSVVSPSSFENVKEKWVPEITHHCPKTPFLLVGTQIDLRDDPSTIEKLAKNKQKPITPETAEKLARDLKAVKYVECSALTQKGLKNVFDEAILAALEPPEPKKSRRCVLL
row,effect of a mutation on the interaction,Variant
1,disrupting interaction strength,MSGGPMGGRPGGRGAPAVQQNIPSTLLQDHENQRLFEMLGRKCLTLATAVVQLYLALPPGAEHWTKEHCGAVCFVKDNPQKSYFIRLYGLQAGRLLWEQELYSQLVYSTPTPFFHTFAGDDCQAGLNFADEDEAQAFRALVQEKIQKRNQRQSGDRRQLPPPPTPANEERRGGLPPLPLHPGGDQGGPPVGPLSLGLATVDIQNPDITSSRYRGLPAPGPSPADKKRSGKKKISKADIGAPSGFKHVSHVGWDPQNGFDVNNLDPDLRSLFSRAGISEAQLTDAETSKLIYDFTEDQGGLEAVRQEMRRQEPLPPPPPPSRGGNQLPRPPIVGGNKGRSGPLPPVPLGIAPPPPTPRGPPPPGRGGPPPPPPPATGRSGPLPPPPPGAGGPPMPPPPPPPPPPPSSGNGPAPPPLPPALVPAGGLAPGGGRGALLDQIRQGIQLNKTPGAPESSALQPPPQSSEGLVGALMHVMQKRSRAIHSSDEGEDQAGDEDEDDEWDD [I294T]
2,with no effect,MSGGPMGGRPGGRGAPAVQQNIPSTLLQDHENQRLFEMLGRKCLTLATAVVQLYLALPPGAEHWTKEHCGAVCFVKDNPQKSYFIRLYGLQAGRLLWEQELYSQLVYSTPTPFFHTFAGDDCQAGLNFADKDEAQAFRALVQEKIQKRNQRQSGDRRQLPPPPTPANEERRGGLPPLPLHPGGDQGGPPVGPLSLGLATVDIQNPDITSSRYRGLPAPGPSPADKKRSGKKKISKADIGAPSGFKHVSHVGWDPQNGFDVNNLDPDLRSLFSRAGISEAQLTDAETSKLIYDFIEDQGGLEAVRQEMRRQEPLPPPPPPSRGGNQLPRPPIVGGNKGRSGPLPPVPLGIAPPPPTPRGPPPPGRGGPPPPPPPATGRSGPLPPPPPGAGGPPMPPPPPPPPPPPSSGNGPAPPPLPPALVPAGGLAPGGGRGALLDQIRQGIQLNKTPGAPESSALQPPPQSSEGLVGALMHVMQKRSRAIHSSDEGEDQAGDEDEDDEWDD [E131K]

# Variants of: B2
# Conditions: with myd88_human MYD88, Q99836
# myd88_human MYD88, Q99836, sequence (Q99836 whole entry): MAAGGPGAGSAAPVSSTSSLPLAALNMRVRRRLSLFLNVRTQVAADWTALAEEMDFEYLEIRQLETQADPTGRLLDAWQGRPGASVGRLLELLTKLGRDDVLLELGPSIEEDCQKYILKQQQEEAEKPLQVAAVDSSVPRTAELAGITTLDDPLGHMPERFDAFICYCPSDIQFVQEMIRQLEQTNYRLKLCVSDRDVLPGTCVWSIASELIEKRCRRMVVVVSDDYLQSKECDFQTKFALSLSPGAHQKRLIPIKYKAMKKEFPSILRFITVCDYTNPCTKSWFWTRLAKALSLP
row,effect of a mutation on the interaction,Variant
1,with no effect,MNKPITPSTYVRCLNVGLIRKLSDFIDPQEGWKKLAVAIKKPSGDDRYNQFHIRRFEALLQTGKSPTSELLFDWGTTNCTVGDLVDLLIQNEFFAPASLLLPDAVPKTANTLPSKEAITVQQKQMPFCDKDRTLMTPVQNLEQSYMPPDSSSPENKSLEVSDTRFHSFSFYELKNVTNNFDERPISVGGNKMGEGGFGVVYKGYVNNTTVAVKKLAAMVDITTEELKQQFDQEIKVMAKCQHENLVELLGFSSDGDDLCLVYVYMPNGSLLDRLSCLDGTPPLSWHMRCKIAQGAANGINFLHENHHIHRDIKSANILLDEAFTAKISDFGLARASEKFAQTVMTSRIVGTTAYMAPEALRGEITPKSDIYSFGVVLLEIITGLPAVDEHREPQLLLDIKEEIEDEEKTIEDYIDKKMNDADSTSVETMYSVASQCLHEKKNKRPDIKKVQQLLQEMTAS [A428T]
2,disrupting interaction strength,MNKPITPSTYVCCLNVGLIRKLSDFIDPQEGWKKLAVAIKKPSGDDRYNQFHIRRFEALLQTGKSPTSELLFDWGTTNCTVGDLVDLLIQNEFFAPASLLLPDAVPKTANTLPSKEAITVQQKQMPFCDKDRTLMTPVQNLEQSYMPPDSSSPENKSLEVSDTRFHSFSFYELKNVTNNFDERPISVGGNKMGEGGFGVVYKGYVNNTTVAVKKLAAMVDITTEELKQQFDQEIKVMAKCQHENLVELLGFSSDGDDLCLVYVYMPNGSLLDRLSCLDGTPPLSWHMRCKIAQGAANGINFLHENHHIHRDIKSANILLDEAFTAKISDFGLARASEKFAQTVMTSRIVGTTAYMAPEALRGEITPKSDIYSFGVVLLEIITGLPAVDEHREPQLLLDIKEEIEDEEKTIEDYIDKKMNDADSTSVEAMYSVASQCLHEKKNKRPDIKKVQQLLQEMTAS [R12C]
